Legend:
[1] = target: T1, IFF01073 produced in E. coli without glycosylation
T1 chain: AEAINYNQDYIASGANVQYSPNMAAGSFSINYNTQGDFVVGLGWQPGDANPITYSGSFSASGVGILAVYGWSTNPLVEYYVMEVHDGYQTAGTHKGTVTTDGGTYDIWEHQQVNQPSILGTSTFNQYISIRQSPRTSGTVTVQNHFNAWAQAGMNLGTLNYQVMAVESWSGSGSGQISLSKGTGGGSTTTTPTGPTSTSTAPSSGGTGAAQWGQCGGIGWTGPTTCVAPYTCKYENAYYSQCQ

[2] = target: T2, IFF01073 produced in T. reesei with glycosylation
T2 chain: T1 chain

[3] = target: T3, IFF01509
T3 chain: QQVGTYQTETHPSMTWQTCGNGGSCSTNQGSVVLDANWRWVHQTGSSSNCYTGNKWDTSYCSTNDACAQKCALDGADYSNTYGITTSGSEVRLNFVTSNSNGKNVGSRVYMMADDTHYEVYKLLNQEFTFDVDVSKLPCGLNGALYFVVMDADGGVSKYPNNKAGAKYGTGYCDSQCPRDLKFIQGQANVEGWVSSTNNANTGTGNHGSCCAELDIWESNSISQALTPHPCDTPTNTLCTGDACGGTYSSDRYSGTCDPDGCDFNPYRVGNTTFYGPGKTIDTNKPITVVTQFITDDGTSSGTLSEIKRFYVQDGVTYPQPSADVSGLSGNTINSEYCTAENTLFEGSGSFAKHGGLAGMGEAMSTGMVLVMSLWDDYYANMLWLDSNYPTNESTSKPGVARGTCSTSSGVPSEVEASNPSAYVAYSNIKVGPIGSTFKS

[4] = target: T4, IFF01540
T4 chain: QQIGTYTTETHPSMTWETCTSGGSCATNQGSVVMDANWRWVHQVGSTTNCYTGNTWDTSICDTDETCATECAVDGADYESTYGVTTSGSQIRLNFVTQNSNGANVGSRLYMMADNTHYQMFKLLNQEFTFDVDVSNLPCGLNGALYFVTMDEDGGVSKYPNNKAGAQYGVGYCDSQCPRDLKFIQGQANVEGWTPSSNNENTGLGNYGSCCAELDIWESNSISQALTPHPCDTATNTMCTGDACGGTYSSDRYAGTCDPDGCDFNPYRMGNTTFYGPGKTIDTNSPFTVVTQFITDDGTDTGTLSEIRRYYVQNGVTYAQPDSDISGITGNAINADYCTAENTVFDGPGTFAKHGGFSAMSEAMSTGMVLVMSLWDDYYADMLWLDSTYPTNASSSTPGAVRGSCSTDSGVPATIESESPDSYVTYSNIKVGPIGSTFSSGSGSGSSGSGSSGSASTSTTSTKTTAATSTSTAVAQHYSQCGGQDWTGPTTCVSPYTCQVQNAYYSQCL

[5] = target: IFF03904
[6] = target: T5, IFF05588
T5 chain: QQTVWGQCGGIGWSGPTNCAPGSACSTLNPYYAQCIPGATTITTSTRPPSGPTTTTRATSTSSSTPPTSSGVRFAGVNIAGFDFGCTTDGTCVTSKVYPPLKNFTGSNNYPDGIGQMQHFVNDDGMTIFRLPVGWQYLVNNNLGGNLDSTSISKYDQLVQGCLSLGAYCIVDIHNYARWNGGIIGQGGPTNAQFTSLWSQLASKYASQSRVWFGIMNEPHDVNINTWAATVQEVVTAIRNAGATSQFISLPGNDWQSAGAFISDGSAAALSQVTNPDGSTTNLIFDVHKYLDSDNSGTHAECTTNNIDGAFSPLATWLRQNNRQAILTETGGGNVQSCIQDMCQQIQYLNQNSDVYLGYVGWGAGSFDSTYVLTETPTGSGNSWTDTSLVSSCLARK

[7] = target: IFF06679
[8] = target: T6, IFF07399
T6 chain: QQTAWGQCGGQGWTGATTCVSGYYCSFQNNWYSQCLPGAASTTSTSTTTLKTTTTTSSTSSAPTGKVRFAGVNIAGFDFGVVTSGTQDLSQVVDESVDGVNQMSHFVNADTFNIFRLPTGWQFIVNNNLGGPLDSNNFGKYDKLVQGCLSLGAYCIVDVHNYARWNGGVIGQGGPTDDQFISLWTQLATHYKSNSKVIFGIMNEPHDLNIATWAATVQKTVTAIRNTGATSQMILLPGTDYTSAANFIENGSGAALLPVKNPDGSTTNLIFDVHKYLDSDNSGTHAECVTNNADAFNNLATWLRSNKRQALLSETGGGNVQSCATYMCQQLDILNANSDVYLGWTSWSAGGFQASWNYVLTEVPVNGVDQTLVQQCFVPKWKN

[9] = target: IFF08955
[10] = target: IFF08955v3

B1: IFF05497 (protein)
chain: LAILDKPVIQPNFPGNGLASLGQGLMDHLAPTHSTWDDWGAGWIPQDCKSLVEGAGLSASDVIPFNIHYDDCAQTWTFCRHKDSPLSEITILDIFGRLPVRMRSFVRHLVFIPGAKSAGSNGDNVLLRGDIDVTVFAHEIGHSLDSHAFDPSYGVPFSTGNVWISNYNLDSAVPDPYAQTSQQENFAQQTVISLYDKVVPGGIGTIQPNWQAIFHQYATLEGYIGDVIIPGGTCTHRLTDSPPVQMSSLAKGRRALGPKPNVALSPEVEEIEAIPMKSSITMTSFDEAGKPNGTYVINL
In the case of B1, the “Gel mobility change (SDS-PAGE)” value [1] is reported as “no”, the “Gel mobility change (SDS-PAGE)” value [2] is reported as “yes” and the “Mobility change (SDS-PAGE)” value [2] is reported as “yes”. For the same protein, the “Mobility change (SDS-PAGE)” value [3] was “no”, the “Mobility change (SDS-PAGE)” value [4] was “yes” and the “Mobility change (SDS-PAGE)” value [5] was “yes”. The “Mobility change (SDS-PAGE)” value [6] was “yes”, the Relative late peak area (centered, scaled, averaged over 5, 10 and 15 min) [6] was -0.77 and the Relative late peak area (centered, scaled, averaged over doses, 24 h; sample diluted 1-fold) [6] was -0.28. For the same protein, the “Mobility change (SDS-PAGE)” value [7] was “yes”, the “Gel mobility change (SDS-PAGE)” value [8] was “yes” and the “Mobility change (SDS-PAGE)” value [8] was “yes”. The “Mobility change (SDS-PAGE)” value [9] was “no” and the “Mobility change (SDS-PAGE)” value [10] was “yes”.
